What all share (assay type): biochemical
Data set [1] relates to O=C(c1ccc(Cl)cc1)c1ccccn1. Kind of data set: Kinetic analysis of KpADH mutant M4 with CPMK. Conditions: other: M4, NADPH, pH 7.0, 30° C. Here is the method: In an embodiment of the present disclosure, the mutant includes the substitution of glycine for glutamic acid at position 214 of the amino acid sequence shown in SEQ ID No. 2, the substitution of cysteine for serine at position 237, and the substitution of asparaginate for glutamine at position 136, which is named M4.
(§1) Adopting a total reaction system of 200 μL including: 1.0 mM NADPH, 1.0 mM substrate CPMK and sodium phosphate buffer (PBS, 100 mM, pH 7.0), fully and evenly mixing, maintaining at 30° C. for 2 min, adding an appropriate amount of enzyme solution, and detecting the change in light absorption at 340 nm.
(§2) The enzyme activity was calculated by the following formula: Enzyme activity (U)=EW×V×10^3/(6220×1);
(§3) in the formula, EW is the change in absorbance at 340 nm in 1 min; V is the volume of a reaction solution in mL; 6220 is the molar extinction coefficient of NADPH in L/(mol·cm); and 1 is the optical path distance in cm. One activity unit (U) corresponds to the amount of enzyme required to catalyze the oxidation of 1 μmol NADPH per minute under the above conditions.
(§4) A column used for purification was a nickel affinity column HisTrap FF crude, and purification was achieved through affinity chromatography using a histidine tag on recombinant protein. The nickel column was equilibrated with a solution A first, a crude enzyme solution was loaded, a penetrating peak was further eluted off using the solution A, and after equilibrium, a solution B (20 mM sodium phosphate, 500 mM NaCl, and 1000 mM imidazole, pH 7.4) was used for gradient elution to elute off the recombinant protein bound to the nickel column, so as to obtain the recombinant alcohol dehydrogenase mutant. The purified protein was subjected to activity measurement (CPMK as substrate, and NADPH as coenzyme) and SDS-PAGE analysis. […] The purified alcohol dehydrogenase protein was then replaced into a Tris-HCl (100 mM, pH 7.0) buffer using a Hi Trap Desalting column (GE Healthcare).
(§5) The activity of KpADH at different substrate concentrations and coenzyme concentrations was determined, and a double reciprocal curve was made based on the reciprocal of activity and substrate concentration to calculate kinetic parameters.

For data set [2], the system named is O=C(c1ccc(Cl)cc1)c1ccccn1. As to the kind of experiment: Kinetic analysis of KpADH mutant M3 with CPMK. Conditions: other: M3, NADPH, pH 7.0, 30° C. As for the experimental part: In an embodiment of the present disclosure, the mutant includes the substitution of glycine for glutamic acid at position 214 of the alcohol dehydrogenase with the amino acid sequence shown in SEQ ID No. 2, and the substitution of cysteine for serine at position 237, which is named M3.
as §1, §2, §3, §4, §5

Data set [3] deals with O=C(c1ccc(Cl)cc1)c1ccccn1. Kind of data set: Kinetic analysis of KpADH mutant M2 with CPMK. Conditions: other: M2, NADPH, pH 7.0, 30° C. Here is the method: In an embodiment of the present disclosure, the mutant includes the substitution of valine for glutamic acid at position 214 of the alcohol dehydrogenase with the amino acid sequence shown in SEQ ID No. 2, which is named M2.
as §1, §2, §3, §4, §5

Data set [4] is described as follows: Stereoselectivity analysis of CPMK reduction (chiral liquid chromatography, Table 1). Conditions: product CPMA from CPMK. Here is the method:
(§6) In an embodiment of the present disclosure, the (R)- and (S)-CPMA is chromatographed by taking 100 μL reaction solution, adding 500 μL ethyl acetate, shaking for 1-2 min, centrifuging at 12,000 rpm for 2-5 min, placing a supernatant into a centrifuge tube, and after an organic phase is naturally volatilized completely, adding 500 μL chromatographic pure ethanol for chiral liquid chromatography of a conversion rate and an ee value. The specific chromatographic conditions are as follows: Daicel Chiralcel OB-H (5 μm, 250 mm×4.6 mm) liquid chromatography column, mobile phases are n-hexane: ethanol: ethanolamine (90:10:0.01, v/v/v), the flow rate is 1 mL/min, the column temperature is 30° C., the UV detection wavelength is 254 nm, the injection volume is 10 μL, and the retention time for (R)-CPMA and that for (S)-CPMA are 11.14 min and 12.34 min respectively.
Method for determining optical purity ee:
As: molar concentration of (S)-CPMA obtained by liquid chromatography; and AR: molar concentration of (R)-CPMA obtained by liquid chromatography.
as §5

Data set [5] is described as follows: Substrate specificity: reduction of prochiral carbonyl compound (Table 2). The text has this:
The reduction on prochiral carbonyl compounds by the alcohol dehydrogenase mutants obtained in Example 2 was studied, and the studied prochiral carbonyl compounds include (4-chlorophenyl)-(pyridin-2-yl)-methanone (CPMK), phenyl-(pyridin-2-yl)-methanone, (4-chlorophenyl)-(phenyl)-methanone, (4-bromophenyl)-(phenyl)-methanone, (4-fluorophenyl)-(pyridin-2-yl)-methanone, (4-methoxyphenyl)-(phenyl)-methanone, acetophenone, 4-chloroacetophenone and 2-(4-chlorophenyl)acetyl chloride.

Data set [6] in a line: 20 mL biocatalytic system: asymmetric reduction of CPMK. Conditions: for ee value of final reduction product: 20 mL biocatalytic system, enzyme 10 g/L, 30° C., pH 7.5; for time required to achieve a conversion rate close to 99.9%: CPMK concentration 200 mM. As for the experimental part:
as §6
A 20 mL biocatalytic system was established: 100 mM potassium phosphate buffer (pH 7.0), and the alcohol dehydrogenase mutants M6 and M7 obtained in Example 2 as well as wild KpADH 10 g/L, CPMK 100 mM, 200 mM and 500 mM were added (substrate added in batches). […]

[7] abbreviates: CPMK 100 mM, reaction time 12 h.
The mark [8] stands for this setting: CPMK 100 mM, reaction time 24 h.
Setting [9] is: CPMK 200 mM, reaction time 12 h.
The mark [10] stands for this setting: CPMK 200 mM, reaction time 24 h.
The mark [11] stands for this setting: CPMK 500 mM, reaction time 12 h.
The mark [12] stands for this setting: CPMK 500 mM, reaction time 24 h.

Positions count from the first letter of the chain named. Names and notes keep the numbering of the source. Values joined by “and” are separate entries in the source; they are usually repeats but may differ in a detail not shown here. Equal entries are not always repeated.

What is called Km is the concentration of substrate that gives half-maximal velocity. As a reminder, the Vmax is the rate approached at saturating substrate. Broadly, the kcat is the maximal rate divided by the concentration of active sites. One may read the kcat/Km as the turnover number divided by the Michaelis constant. In the case of “alcohol dehydrogenase KpADH mutant M4 (E214G/S237C/Q136N of SEQ ID No. 2) (Vanderwaltozyma polyspora DSM 70294; E214G/Q136N/S237C)”, in data set [1], the Km worked out at 861 µM, the Vmax was 10.2 µmol/min/mg, the kcat was determined as 6.76 s⁻¹ and the kcat/Km was 7850 M⁻¹ s⁻¹.
Turning to “alcohol dehydrogenase KpADH mutant M3 (E214G/S237C of SEQ ID No. 2) (Vanderwaltozyma polyspora DSM 70294; E214G/S237C)”, in data set [2], the Km worked out at 632 µM, the Vmax came out at 9.32 µmol/min/mg, the kcat is 6.16 s⁻¹ and the kcat/Km amounted to 9740 M⁻¹ s⁻¹.
With “alcohol dehydrogenase KpADH mutant M2 (E214V of SEQ ID No. 2) (Vanderwaltozyma polyspora DSM 70294; E214V)”, in data set [3], the Michaelis-Menten constant (Km) amounted to 574 µM, the Vmax was 17.5 µmol/min/mg, the kcat was 11.7 s⁻¹ and the kcat/Km is 14200 M⁻¹ s⁻¹.

B1: M6: alcohol dehydrogenase mutant E214G, S237C, Q136N, S196G, F161V of SEQ ID No. 2 (protein)
chain: MSVLISGASGYIAKHIVRVLLEQNYKVIGTVRSQDKADKLLKQYNNPNLSYEIVPEIANLDAFDDIFKKHGKEIKYVIHAASPVNFGAKDLEKDLVIPAINGTKNMFEAIKKYAPDTVERVVMTASYASIMTPHRNNDPTLTLDEETWNPVTEENAYENVVTAYCASKTFAEKEAWKFVKENSDAVKFKLTTIHPGFVFGPQNFDEDVTKKLNGTCEIINGLLHAPFDTKVEKTHFCQFIDVRDVAKTHVLGFQKDELINQRLLLCNGAFSQQDIVNVFNEDFPELKGQFPPEDKDTDLNKGVTGCKIDNEKTKKLLAFEFTPFHKTIHDTVYQILHKEGRV
modifications: Protein translated from synthetic DNA
On to B1, for which, in data set [4], the ee is 97.8% and 99.8%. The “ee value of product” value in data set [5] (substrate drawing 2) is listed as 6.81%; in data set [5] (substrate drawing 3) it was 91.7%; in data set [5] (substrate drawing 5) it was 64.2%; in data set [5] (substrate drawing 7), 95.3%; in data set [5] (substrate drawing 8), 82.1%. In addition, the “ee value of final reduction product” value in data set [6] was 99.5%. The Conversion rate amounted to 24.6% in data set [6] (CPMK 100 mM, reaction time 1 h); 54.6% in data set [6] (CPMK 100 mM, reaction time 2 h); 69.4% in data set [6] (CPMK 100 mM, reaction time 3 h); 80.2% in data set [6] (CPMK 100 mM, reaction time 4 h); 95.2% in data set [6] (CPMK 100 mM, reaction time 6 h); 97.2% in data set [6] (CPMK 100 mM, reaction time 8 h). For the same molecule, the Conversion rate was found to be 98.2% in data set [6] (setting [7]); 99.6% in data set [6] (setting [8]); 19.1% in data set [6] (CPMK 200 mM, reaction time 1 h); 36.4% in data set [6] (CPMK 200 mM, reaction time 2 h); 52.8% in data set [6] (CPMK 200 mM, reaction time 3 h); 70.6% in data set [6] (CPMK 200 mM, reaction time 4 h). In addition, the Conversion rate is on record as 89.7% in data set [6] (CPMK 200 mM, reaction time 6 h); 92.2% in data set [6] (CPMK 200 mM, reaction time 8 h); 95.4% in data set [6] (setting [9]); 99.2% in data set [6] (setting [10]); 12.8% in data set [6] (CPMK 500 mM, reaction time 1 h); 22.1% in data set [6] (CPMK 500 mM, reaction time 2 h). In addition, the Conversion rate in data set [6] (CPMK 500 mM, reaction time 3 h) worked out at 30.6%; in data set [6] (CPMK 500 mM, reaction time 4 h), 65.3%; in data set [6] (CPMK 500 mM, reaction time 6 h) it was 77.9%; in data set [6] (CPMK 500 mM, reaction time 8 h), 87.6%; in data set [6] (setting [11]) it was 90.2%; in data set [6] (setting [12]), 99.5%. In addition, the “time required to achieve a conversion rate close to 99.9%” value in data set [6] was found to be 24 h.

B2: KpADH: wild type alcohol dehydrogenase KpADH, amino acid sequence shown in SEQ ID No. 2 (protein)
chain: B1 chain with N136Q, V161F, G196S, G214E, C237S
modifications: Protein translated from synthetic DNA
For the molecule B2, the ee in data set [4] was 82% and 82.5%. Further, the “ee value of product” value is 81.9% in data set [5] (substrate drawing 1 (CPMK)); 26.3% in data set [5] (substrate drawing 2); 71.4% in data set [5] (substrate drawing 3); 69.2% in data set [5] (substrate drawing 4); 25.3% in data set [5] (substrate drawing 5); 14.9% in data set [5] (substrate drawing 6). The “ee value of product” value in data set [5] (substrate drawing 7) was 59.2%; in data set [5] (substrate drawing 8), 67.1%; in data set [5] (substrate drawing 9) it was 77.8%. Besides, in data set [6], the “ee value of final reduction product” value stood at 82%. Further, the Conversion rate in data set [6] (CPMK 100 mM, reaction time 1 h) is 47.76%; in data set [6] (CPMK 100 mM, reaction time 2 h), 77.9%; in data set [6] (CPMK 100 mM, reaction time 3 h), 87.1%; in data set [6] (CPMK 100 mM, reaction time 4 h), 96.5%; in data set [6] (CPMK 100 mM, reaction time 6 h), 98.7%; in data set [6] (CPMK 100 mM, reaction time 8 h), 99.6%. Further, the Conversion rate in data set [6] (setting [7]) is greater than 99.9%; in data set [6] (setting [8]), greater than 99.9%; in data set [6] (CPMK 200 mM, reaction time 1 h), 25.6%; in data set [6] (CPMK 200 mM, reaction time 2 h), 36.9%; in data set [6] (CPMK 200 mM, reaction time 3 h), 50.5%; in data set [6] (CPMK 200 mM, reaction time 4 h), 62.8%. For the same molecule, the Conversion rate is given as 85.3% in data set [6] (CPMK 200 mM, reaction time 6 h); 97.4% in data set [6] (CPMK 200 mM, reaction time 8 h); 99.4% in data set [6] (setting [9]); 99.7% in data set [6] (setting [10]); 11.7% in data set [6] (CPMK 500 mM, reaction time 1 h); 20.1% in data set [6] (CPMK 500 mM, reaction time 2 h). Further, the Conversion rate in data set [6] (CPMK 500 mM, reaction time 3 h) stood at 44.8%; in data set [6] (CPMK 500 mM, reaction time 4 h), 59.6%; in data set [6] (CPMK 500 mM, reaction time 6 h) it was 80.2%; in data set [6] (CPMK 500 mM, reaction time 8 h), 93.2%; in data set [6] (setting [11]) it was 95.6%; in data set [6] (setting [12]), 99.2%. In data set [6], the “time required to achieve a conversion rate close to 99.9%” value is reported as 12 h.
